Data on nine molecules can be found in US20220324928, “Zinc Finger Protein Transcription Factors for Repressing Alpha-Synuclein Expression” (Sangamo Therapeutics, Inc., published 2022).

Bounds are passed on as bounds.

Common to all, as to test: cell_activity; SNCA mRNA repression at highest dose
Conditions in all cases: tags: NLS, C-terminal KOX1 KRAB

Series [1] has as its target ZFP-TF SBS-82294 (Artificial Sequence).
Series [2] addresses ZFP-TF SBS-82225 (Artificial Sequence).
In series [3] the target is ZFP-TF SBS-82090 (Artificial Sequence).
Chain of ZFP-TF SBS-82090 (Artificial Sequence) (chain, as listed by the source): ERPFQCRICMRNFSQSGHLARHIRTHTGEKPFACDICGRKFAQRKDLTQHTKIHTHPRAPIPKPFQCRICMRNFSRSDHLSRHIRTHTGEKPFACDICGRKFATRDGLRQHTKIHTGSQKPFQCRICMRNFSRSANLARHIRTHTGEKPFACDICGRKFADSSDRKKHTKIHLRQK
Series [4] has as its target ZFP-TF SBS-82215 (Artificial Sequence).
Series [5] concerns the target ZFP-TF SBS-82150 (Artificial Sequence).
Series [6] addresses ZFP-TF SBS-82107 (Artificial Sequence).
Series [7] deals with ZFP-TF SBS-82190 (Artificial Sequence).
Chain of ZFP-TF SBS-82190 (Artificial Sequence) (chain, as listed by the source): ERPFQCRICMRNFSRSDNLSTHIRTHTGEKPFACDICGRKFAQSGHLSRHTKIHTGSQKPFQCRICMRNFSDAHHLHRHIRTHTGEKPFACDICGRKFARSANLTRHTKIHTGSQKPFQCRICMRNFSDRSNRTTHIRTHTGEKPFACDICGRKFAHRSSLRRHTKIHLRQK
Series [8] addresses ZFP-TF SBS-82092 (Artificial Sequence).
The target of series [9] is ZFP-TF SBS-82197 (Artificial Sequence).
Chain of ZFP-TF SBS-82197 (Artificial Sequence) (chain, as listed by the source): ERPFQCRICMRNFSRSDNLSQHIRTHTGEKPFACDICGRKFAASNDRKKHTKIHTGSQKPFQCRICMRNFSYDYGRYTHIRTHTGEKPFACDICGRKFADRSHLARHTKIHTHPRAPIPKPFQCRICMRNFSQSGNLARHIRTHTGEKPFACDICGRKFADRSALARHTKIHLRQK

Chain of ZFP-TF SBS-82225 (Artificial Sequence) (chain, as listed by the source): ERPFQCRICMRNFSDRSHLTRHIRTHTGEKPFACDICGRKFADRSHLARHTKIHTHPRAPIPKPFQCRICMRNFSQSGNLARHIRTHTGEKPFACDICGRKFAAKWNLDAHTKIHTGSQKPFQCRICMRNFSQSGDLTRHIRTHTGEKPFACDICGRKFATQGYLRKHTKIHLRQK
Chain of ZFP-TF SBS-82215 (Artificial Sequence) (chain, as listed by the source): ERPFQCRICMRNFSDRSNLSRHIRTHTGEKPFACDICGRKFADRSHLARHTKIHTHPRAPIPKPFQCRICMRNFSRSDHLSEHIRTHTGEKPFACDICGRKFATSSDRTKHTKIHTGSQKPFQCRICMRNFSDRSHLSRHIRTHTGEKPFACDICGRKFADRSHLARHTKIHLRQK
Chain of ZFP-TF SBS-82107 (Artificial Sequence) (chain, as listed by the source): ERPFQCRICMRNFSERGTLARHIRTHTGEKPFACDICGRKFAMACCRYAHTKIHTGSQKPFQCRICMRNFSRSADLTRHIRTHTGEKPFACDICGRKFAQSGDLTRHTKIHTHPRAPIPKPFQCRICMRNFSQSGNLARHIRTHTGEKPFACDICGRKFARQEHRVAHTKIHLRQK
Chain of ZFP-TF SBS-82294 (Artificial Sequence) (chain, as listed by the source): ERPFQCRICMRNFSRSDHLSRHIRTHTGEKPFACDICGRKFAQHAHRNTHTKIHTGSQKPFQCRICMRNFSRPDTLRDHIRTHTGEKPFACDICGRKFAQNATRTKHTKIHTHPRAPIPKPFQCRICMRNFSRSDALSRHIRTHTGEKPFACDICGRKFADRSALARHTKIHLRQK
Chain of ZFP-TF SBS-82150 (Artificial Sequence) (chain, as listed by the source): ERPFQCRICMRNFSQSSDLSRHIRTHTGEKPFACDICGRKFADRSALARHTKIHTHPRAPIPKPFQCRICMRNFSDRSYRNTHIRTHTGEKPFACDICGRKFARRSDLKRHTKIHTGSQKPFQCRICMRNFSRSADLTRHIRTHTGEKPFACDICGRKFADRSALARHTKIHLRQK
Chain of ZFP-TF SBS-82092 (Artificial Sequence) (chain, as listed by the source): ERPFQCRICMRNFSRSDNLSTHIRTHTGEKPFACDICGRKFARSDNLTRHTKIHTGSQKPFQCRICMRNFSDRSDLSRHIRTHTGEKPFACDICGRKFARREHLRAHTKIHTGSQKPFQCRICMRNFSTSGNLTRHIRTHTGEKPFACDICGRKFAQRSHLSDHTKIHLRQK

B1: SNCA site 82294 (dsDNA)
DNA 1: GGTCGTGGGCACCGGGAGGGG
DNA 2: CCCCTCCCGGTGCCCACGACC
In series [1], B1 came in with an activity of at least 95 % repression.

B2: SNCA site 82225 (dsDNA)
DNA 1: GAGCGCACAGGAAGGGCGGAG
DNA 2: CTCCGCCCTTCCTGTGCGCTC
In turn, B2 showed an activity in series [2] of at least 95 % repression.

B3: SNCA site 82090 (dsDNA)
DNA 1: ATCCGAGATAGGGACGAGGAG
DNA 2: CTCCTCGTCCCTATCTCGGAT
The molecule B3 yielded an activity in [3] of at least 95 % repression.

B4: SNCA site 82215 (dsDNA)
DNA 1: AGGCGGCACCCGGGGGGGACT
DNA 2: AGTCCCCCCCGGGTGCCGCCT
On to B4, for which, in [4], the activity is at least 95 % repression.

B5: SNCA site 82150 (dsDNA)
DNA 1: CGTCGCGGCGCTCGGTCGCTC
DNA 2: GAGCGACCGAGCGCCGCGACG
For the molecule B5, the activity in [5] is at least 95 % repression.

B6: SNCA site 82107 (dsDNA)
DNA 1: CAGGGAAAGCAGCGAGCGCCG
DNA 2: CGGCGCTCGCTGCTTTCCCTG
In [6], B6 returned an activity of at least 95 % repression.

B7: SNCA site 82190 (dsDNA)
DNA 1: CGCTCACGAGGGTGGAAAGG
DNA 2: CCTTTCCACCCTCGTGAGCG
With B7, in series [7], the activity is at least 95 % repression.

B8: SNCA site 82092 (dsDNA)
DNA 1: CCGAGATAGGGACGAGGAGC
DNA 2: GCTCCTCGTCCCTATCTCGG
For the molecule B8, the activity in series [8] is at least 95 % repression.

B9: SNCA site 82197 (dsDNA)
DNA 1: CGTCGAATGGCCACTCCCAGT
DNA 2: ACTGGGAGTGGCCATTCGACG
For the molecule B9, the activity in [9] was at least 95 % repression.
